Reference: patent publication US20100273669A1

Target: MBP2-ISEF-N1G1N2-(…)-NVDE1-184-…-FKBP2-GSRS-6His (bacteriophage M13; yeast; human) (UniProt P69168)
Assay: cell-based or functional assay

MBP2-ISEF-N1G1N2-(…)-NVDE1-184-…-FKBP2-GSRS-6His (bacteriophage M13; yeast; human), sequence (P69168 19-265, tags or fused parts left off): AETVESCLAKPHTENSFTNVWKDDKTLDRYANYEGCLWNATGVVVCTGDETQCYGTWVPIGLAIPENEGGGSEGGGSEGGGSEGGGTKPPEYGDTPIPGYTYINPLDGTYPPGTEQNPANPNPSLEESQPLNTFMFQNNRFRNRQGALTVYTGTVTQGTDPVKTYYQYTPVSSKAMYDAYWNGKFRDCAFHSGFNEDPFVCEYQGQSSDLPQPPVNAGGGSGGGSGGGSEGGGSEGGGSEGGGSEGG

“phage displaying the fusion protein FRB-TS-CVDE390-454-GSGGGS-CTg3p (from UniProt P42345 2021-2113; P17255 390-454)” was tested, and the phages recovering infecting ability counted as colony forming units, with against without rapamycin (10 µM) was 100 times.
